Test results taken from patent publication US20150111822A1.

Biological target: Fzd7/Sdc4 co-receptor complex (mouse) (UniProt Q61090)
Experiment: cell-based or functional assay

Sequence of Fzd7/Sdc4 co-receptor complex (mouse) (O35988 24-198, chain 2 of 2, other chains not shown): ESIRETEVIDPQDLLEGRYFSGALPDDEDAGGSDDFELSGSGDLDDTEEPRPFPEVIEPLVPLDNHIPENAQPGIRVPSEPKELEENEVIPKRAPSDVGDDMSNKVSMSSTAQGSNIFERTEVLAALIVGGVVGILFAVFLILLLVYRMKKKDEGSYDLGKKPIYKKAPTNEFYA

Substance | increase in the proportion of symmetric cell divisions, COL&Wnt7a against COL alone, 42 h | increase in numbers of Pax7+/YFP+ cells, FN&Wnt7a condition, 72 h | increase in numbers of satellite stem cells, FN&Wnt7a relative to COL&Wnt7a, 72 h | increase in the proportion of symmetric Pax7+/YFP- cell divisions, FN&Wnt7a, 42 h
recombinant Wnt7a (R&D Systems) (ligand) | 108% |  |  | 
human plasma fibronectin (BD biosciences) (from UniProt P02751 32-2296) (ligand) |  | 38% | 156% | 163%
